The source of these data is article PMC8981238, “C-type cytochrome-initiated reduction of bacterial lytic polysaccharide monooxygenases” (Biochemical Journal, 2021).

Series [1] deals with CfAA10, LPMO from Cellulomonas fimi (Cellulomonas fimi).
The target in series [2] is CjAA10BΔCBM, cellulose active LPMO CjAA10B from Cellvibrio japonicus lacking its CBM (Cellvibrio japonicus).
Substrate in series [3]: O=C1O[C@H]([C@@H](O)CO)C(O)=C1O
The experiment in a line: Amplex Red / horseradish peroxidase coupled H2O2 production, initial rates. In kind it is biochemical, Cellvibrio japonicus. The following applies: reductant varied, no polysaccharide, O2 from air, 50 mM sodium phosphate pH 6.0, room temperature, 2 µM LPMO. The source says: Amplex Red / horseradish peroxidase coupled H2O2 production, initial rates on CjAA10BΔCBM | concentration of CjX183, or ascorbate, was varied around calculated KM values

B1: CjX183, c-type cytochrome X183 domain of Cbp2D from Cellvibrio japonicus (domain or fragment)
chain: GYLVGDATRGANLWNTQTCVACHGVDGERNASGTPALTPLNPNRDLYRHSRDTQDRALRDFISMWMPQGNEGSCTGQCAADIEAFIRTW
modifications: heme c covalently linked via thioether linkages to Cys19 and Cys22 (numbering of the structure); disulfide bond between cysteines 74 and 78
For B1, in series [1], the rate of oxidation of reduced CjX183 (10 µM, decay of A552, single exponential) with 0 to 50 µM CfAA10; rate rose linearly is 1.13 min⁻¹. The rate of oxidation of reduced CjX183 (10 µM, decay of A552, single exponential) with 0 to 50 µM CjAA10BΔCBM; rate rose linearly in series [2] came to 0.56 min⁻¹.

B2: CjAA10BΔCBM (Cellvibrio japonicus Ueda107) (protein)
chain: HGFVDSPGARNYFCGAVTKPDHVMNGVARYPECAGAFANDFNGGYSYMSVLTHHQGRKVLGPVARNVCGFDSETWNGGKTPWDNAINWPVNNINSGTLTFSWDISNGPHFDDTSDFRYWITKPGFVYQVGRELTWADFEDQPFCDLAYNDDNPGAYPNVRADKPNTHFHTTCTVPARTGRHVIYAEWGREPPTYERFHGCIDVQIGGGSNSSVPVSSSSSSRSSSSSSLAPSSSSRSSSSSSSVSSSRSSSSSVVSSSSSSRPASSSSSSTGGS
notes: AA10 catalytic part, C-terminal CBM deleted, from pET22-CjAA10B
In general, Km refers to the concentration of substrate that gives half-maximal velocity. Turning to B2, the Michaelis constant (Km) in series [3] was 5.8 ± 0.3 µM.
